Source: article PMC13036090

What was measured:
[1] = Flag-KPNA2 pull-down, HEK293T, IFNγ; conditions: glycan lost; control: cells expressing UGDH WT
[2] = NADH OD340 assay, Flag-purified protein; conditions: glycan lost; control: WT UGDH from HEK293T
[3] = steady-state kinetics, Michaelis-Menten fit; conditions: glycan lost; control: WT UGDH from HEK293T
[4] = HABP immunofluorescence and competitive ELISA; conditions: glycan lost; control: UGDH-KO A549 rescued with WT UGDH
[5] = NADH OD340 assay, Flag-purified from HEK293T; conditions: glycan gained; control: WT UGDH, no OGT co-expression or TMG

Row | Protein | other: KPNA2-STAT1 association in cells [1] | enzymatic_activity [2] | enzymatic_activity, kcat_Km [3] | other: cellular hyaluronic acid level [4] | enzymatic_activity [5]
1 | UGDH (uridine diphosphate glucose dehydrogenase): S350A (protein) parent chain: MFEIKKICCIGAGYVGGPTCSVIAHMCPEIRVTVVDVNESRINAWNSPTLPIYEPGLKEVVESCRGKNLFFSTNIDDAIKEADLVFISVNTPTKTYGMGKGRAADLKYIEACARRIVQNSNGYKIVTEKSTVPVRAAESIRRIFDANTKPNLNLQVLSNPEFLAEGTAIKDLKNPDRVLIGGDETPEGQRAVQALCAVYEHWVPREKILTTNTWSSELSKLAANAFLAQRISSINSISALCEATGADVEEVATAIGMDQRIGNKFLKASVGFGGSCFQKDVLNLVYLCEALNLPEVARYWQQVIDMNDYQRRRFASRIIDSLFNTVTDKKIAILGFAFKKDTGDTRESSSIYISKYLMDEGAHLHIYDPKVPREQIVVDLSHPGVSEDDQVSRLVTISKDPYEACDGAHAVVICTEWDMFKELDYERIHKKMLKPAFIFDGRRVLDGLHNELQTIGFQIETIGKKVSSKRIPYAPSGEIPKFSLQDPPNKKPKV | increases | decreases | decreases, 0.576 vs 5.07, Km value of 37.7 μM for the S350A, which was 3-fold higher than that of the WT with a Km value of 11.4 μM | decreases | 
2 | UGDH (uridine diphosphate glucose dehydrogenase): TMG (50 μM) (protein) parent chain: MFEIKKICCIGAGYVGGPTCSVIAHMCPEIRVTVVDVNESRINAWNSPTLPIYEPGLKEVVESCRGKNLFFSTNIDDAIKEADLVFISVNTPTKTYGMGKGRAADLKYIEACARRIVQNSNGYKIVTEKSTVPVRAAESIRRIFDANTKPNLNLQVLSNPEFLAEGTAIKDLKNPDRVLIGGDETPEGQRAVQALCAVYEHWVPREKILTTNTWSSELSKLAANAFLAQRISSINSISALCEATGADVEEVATAIGMDQRIGNKFLKASVGFGGSCFQKDVLNLVYLCEALNLPEVARYWQQVIDMNDYQRRRFASRIIDSLFNTVTDKKIAILGFAFKKDTGDTRESSSIYISKYLMDEGAHLHIYDPKVPREQIVVDLSHPGVSEDDQVSRLVTISKDPYEACDGAHAVVICTEWDMFKELDYERIHKKMLKPAFIFDGRRVLDGLHNELQTIGFQIETIGKKVSSKRIPYAPSGEIPKFSLQDPPNKKPKV |  |  |  |  | increases
3 | UGDH (uridine diphosphate glucose dehydrogenase): OGT co-expression (protein) parent chain: MFEIKKICCIGAGYVGGPTCSVIAHMCPEIRVTVVDVNESRINAWNSPTLPIYEPGLKEVVESCRGKNLFFSTNIDDAIKEADLVFISVNTPTKTYGMGKGRAADLKYIEACARRIVQNSNGYKIVTEKSTVPVRAAESIRRIFDANTKPNLNLQVLSNPEFLAEGTAIKDLKNPDRVLIGGDETPEGQRAVQALCAVYEHWVPREKILTTNTWSSELSKLAANAFLAQRISSINSISALCEATGADVEEVATAIGMDQRIGNKFLKASVGFGGSCFQKDVLNLVYLCEALNLPEVARYWQQVIDMNDYQRRRFASRIIDSLFNTVTDKKIAILGFAFKKDTGDTRESSSIYISKYLMDEGAHLHIYDPKVPREQIVVDLSHPGVSEDDQVSRLVTISKDPYEACDGAHAVVICTEWDMFKELDYERIHKKMLKPAFIFDGRRVLDGLHNELQTIGFQIETIGKKVSSKRIPYAPSGEIPKFSLQDPPNKKPKV |  |  |  |  | increases
